Biological target: T1, SMCR8 (Smith-Magenis syndrome chromosome region, candidate 8) (human, UniProt Q8TEV9 1-937)
T1 sequence: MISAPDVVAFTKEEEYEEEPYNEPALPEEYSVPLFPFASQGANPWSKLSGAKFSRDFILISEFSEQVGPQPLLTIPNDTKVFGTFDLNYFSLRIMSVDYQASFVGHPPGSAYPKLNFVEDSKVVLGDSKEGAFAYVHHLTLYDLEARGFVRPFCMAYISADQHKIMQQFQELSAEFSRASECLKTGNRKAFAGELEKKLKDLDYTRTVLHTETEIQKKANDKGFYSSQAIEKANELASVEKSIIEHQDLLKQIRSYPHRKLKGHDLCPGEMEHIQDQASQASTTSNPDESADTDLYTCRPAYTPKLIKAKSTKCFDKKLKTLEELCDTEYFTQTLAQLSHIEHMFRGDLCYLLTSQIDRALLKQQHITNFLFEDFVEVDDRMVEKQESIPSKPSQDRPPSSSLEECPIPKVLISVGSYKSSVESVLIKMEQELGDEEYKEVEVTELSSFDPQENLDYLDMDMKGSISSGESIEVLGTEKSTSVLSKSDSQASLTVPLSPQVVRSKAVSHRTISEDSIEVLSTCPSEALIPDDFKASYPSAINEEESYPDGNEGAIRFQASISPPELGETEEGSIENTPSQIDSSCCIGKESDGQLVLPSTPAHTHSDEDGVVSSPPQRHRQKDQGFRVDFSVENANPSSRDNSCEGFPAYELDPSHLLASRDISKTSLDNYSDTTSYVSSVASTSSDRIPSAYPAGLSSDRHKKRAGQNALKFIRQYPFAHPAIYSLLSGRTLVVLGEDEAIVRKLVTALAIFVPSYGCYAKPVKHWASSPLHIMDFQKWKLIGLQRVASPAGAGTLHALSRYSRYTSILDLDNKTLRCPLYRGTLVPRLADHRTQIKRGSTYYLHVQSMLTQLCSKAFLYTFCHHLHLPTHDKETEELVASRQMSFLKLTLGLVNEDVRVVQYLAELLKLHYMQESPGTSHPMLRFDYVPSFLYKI
Assay: cryo-EM structure

B1: C9orf72 (natural protein)
chain: MSTLCPPPSPAVAKTEIALSGKSPLLAATFAYWDNILGPRVRHIWAPKTEQVLLSDGEITFLANHTLNGEILRNAESGAIDVKFFVLSEKGVIIVSLIFDGNWNGDRSTYGLSIILPQTELSFYLPLHRVCVDRLTHIIRKGRIWMHKERQENVQKIILEGTERMEDQGQSIIPMLTGEVIPVMELLSSMKSHSVPEEIDIADTVLNDDDIGDSCHEGFLLNAISSHLQTCGCSVVVGSSAEKVNKIVRTLCLFLTPAERKCSRLCEAESSFKYESGLFVQGLLKDSTGSFVLPFRQVMYAPYPTTHIDVDVNTVKQMPPCHEHIYNQRRYMRSELTAFWRATSEEDMAQDTIIYTDESFTPDLNIFQDVLHRDTLVKAFLDQVFQLKPGLSLRSTFLAQFLLVLHRKALTLIKYIEDDTQKGKKPFKSLRNLKIDLDLTAEGDLNIIMALAEKIKPGLHSFIFGRPFYTSVQERDVLMTF
binding result: binds

B2: WDR41 (WD repeat protein 41) (natural protein)
chain: MLRWLIGGGREPQGLAEKSPLQTIGEEQTQNPYTELLVLKAHHDIVRFLVQLDDYRFASAGDDGIVVVWNAQTGEKLLELNGHTQKITAIITFPSLESCEEKNQLILTASADRTVIVWDGDTTRQVQRISCFQSTVKCLTVLQRLDVWLSGGNDLCVWNRKLDLLCKTSHLSDTGISALVEIPKNCVVAAVGKELIIFRLVAPTEGSLEWDILEVKRLLDHQDNILSLINVNDLSFVTGSHVGELIIWDALDWTMQAYERNFWDPSPQLDTQQEIKLCQKSNDISIHHFTCDEENVFAAVGRGLYVYSLQMKRVIACQKTAHDSNVLHVARLPNRQLISCSEDGSVRIWELREKQQLAAEPVPTGFFNMWGFGRVSKQASQPVKKQQENATSCSLELIGDLIGHSSSVEMFLYFEDHGLVTCSADHLIILWKNGERESGLRSLRLFQKLEENGDLYLAV
binding result: binds

From publication PMC8054479 (Nature, 2020)
